Laboratory results taken from PMC6763497, “Argonaute bypasses cellular obstacles without hindrance during target search”.
Where a chain is given by its changes, count along the chain named.

Legend:
[1] = molecular target: T1, CbAgo (Clostridium butyricum, UniProt P0DYD1 1-748); experiment: smFRET; 100 mM NaCl; mean dwell 37 s, koff 2.7e-2 s-1; 50 mM Tris-HCl pH 8.0, 100 mM NaCl (10-200 mM in salt series); temperature not given; TIRF smFRET, 100 ms; conditions: protein: recombinant, tags: His6-MBP removed by TEV, label: Cy3 guide, Cy5 target, 3' biotin target, 3 nt match (guide nt 2-4)
[2] = molecular target: T1, CbAgo; experiment: smFRET; stable beyond photobleaching time; 50 mM Tris-HCl pH 8.0, 100 mM NaCl (10-200 mM in salt series); temperature not given; TIRF smFRET, 100 ms; conditions: protein: recombinant, tags: His6-MBP removed by TEV, label: Cy3 guide, Cy5 target, 3' biotin target
[3] = molecular target: T1, CbAgo; experiment: smFRET; 15.1% shuttling; strongly bound; 50 mM Tris-HCl pH 8.0, 100 mM NaCl (10-200 mM in salt series); temperature not given; TIRF smFRET, 100 ms; conditions: protein: recombinant, tags: His6-MBP removed by TEV, label: Cy3 guide, Cy5 target, 3' biotin, two sites, 6 nt match
[4] = molecular target: T1, CbAgo; experiment: smFRET; 100 mM NaCl; 87.8% shuttling, 13.5 events per binding; 50 mM Tris-HCl pH 8.0, 100 mM NaCl (10-200 mM in salt series); temperature not given; TIRF smFRET, 100 ms; conditions: protein: recombinant, tags: His6-MBP removed by TEV, label: Cy3 guide, Cy5 target, 3' biotin, two sites
[5] = molecular target: T1, CbAgo; experiment: smFRET; 17 bp blockade, shuttling; 50 mM Tris-HCl pH 8.0, 100 mM NaCl (10-200 mM in salt series); temperature not given; TIRF smFRET, 100 ms; conditions: protein: recombinant; tags: His6-MBP removed by TEV; label: Cy3 guide; 3' biotin dT target; strands 2:3 pair over 17 bp, ss flanks
[6] = molecular target: T1, CbAgo; experiment: smFRET; 21 bp blockade; 50 mM Tris-HCl pH 8.0, 100 mM NaCl (10-200 mM in salt series); temperature not given; TIRF smFRET, 100 ms; conditions: protein: recombinant; tags: His6-MBP removed by TEV; label: Cy3 guide; 3' biotin dT target; strands 2:3 pair over 21 bp, ss flanks
[7] = molecular target: T1, CbAgo; experiment: smFRET; 25 bp blockade; 50 mM Tris-HCl pH 8.0, 100 mM NaCl (10-200 mM in salt series); temperature not given; TIRF smFRET, 100 ms; conditions: protein: recombinant; tags: His6-MBP removed by TEV; label: Cy3 guide; 3' biotin dT target; strands 2:3 pair over 25 bp, ss flanks
[8] = molecular target: T1, CbAgo; experiment: smFRET; shuttling time 0.5124 s at 200 mM NaCl; 50 mM Tris-HCl pH 8.0, 100 mM NaCl (10-200 mM in salt series); temperature not given; TIRF smFRET, 100 ms; conditions: protein: recombinant, tags: His6-MBP removed by TEV, label: Cy3 guide, Cy5 target, 3' biotin dT, two sites
[9] = molecular target: T1, CbAgo; experiment: smFRET; shuttling time 0.4459 s at 200 mM NaCl; 50 mM Tris-HCl pH 8.0, 100 mM NaCl (10-200 mM in salt series); temperature not given; TIRF smFRET, 100 ms; conditions: protein: recombinant, tags: His6-MBP removed by TEV, label: Cy3 guide, Cy5 target, 3' biotin, two sites
[10] = molecular target: T1, CbAgo; experiment: smFRET; shuttling rate 0.3188 s-1; 50 mM Tris-HCl pH 8.0, 100 mM NaCl (10-200 mM in salt series); temperature not given; TIRF smFRET, 100 ms; conditions: protein: recombinant, tags: His6-MBP removed by TEV, label: Cy3 guide, Cy5 target, 3' biotin dT, two sites
[11] = molecular target: T1, CbAgo; experiment: smFRET; shuttling time as tandem 11 nt; 50 mM Tris-HCl pH 8.0, 100 mM NaCl (10-200 mM in salt series); temperature not given; TIRF smFRET, 100 ms; conditions: protein: recombinant; tags: His6-MBP removed by TEV; label: Cy3 guide; Cy5 target; 5' biotin strand; fork 2:3, 17 bp stem
[12] = molecular target: T1, CbAgo; experiment: smFRET; three-state shuttling; 50 mM Tris-HCl pH 8.0, 100 mM NaCl (10-200 mM in salt series); temperature not given; TIRF smFRET, 100 ms; conditions: protein: recombinant, tags: His6-MBP removed by TEV, label: Cy3 guide, Cy5 target, 3' biotin, three sites 11 nt apart
[13] = molecular target: T1, CbAgo; experiment: smFRET; shuttling time 2.11 s (2.03-2.19); 50 mM Tris-HCl pH 8.0, 100 mM NaCl (10-200 mM in salt series); temperature not given; TIRF smFRET, 100 ms; conditions: protein: recombinant, tags: His6-MBP removed by TEV, label: Cy3 guide, Cy5 target, 3' biotin dT, two sites
[14] = molecular target: T1, CbAgo; experiment: smFRET; Lin28b bound between targets; shuttling; 50 mM Tris-HCl pH 8.0, 100 mM NaCl (10-200 mM in salt series); temperature not given; TIRF smFRET, 100 ms; conditions: protein: recombinant; tags: His6-MBP removed by TEV; label: Cy3 guide; Cy5 target; hairpin between two ss target sites

B1: Guide 3nt (2-4) / single target (ssDNA)
DNA 1: CGAGTATTTTTTTTTTTTTTTT
DNA 2: TTTTTTTTTTTTTTTTTTTTTTTTTTTTTTTTTTTACTACCTCTTTTTTTTTTTTTTTTTTTTTTTTTTTTTT
modifications: guide 5' phosphate; amino-C6-dT at guide nt 9 and target nt 28
- binding result [1]: binds

B2: Guide 7nt (2-8) / single target (ssDNA)
DNA 1: CGAGGTAGATTTTTTTTTTTTT
DNA 2: B1 DNA 2
modifications: guide 5' phosphate; amino-C6-dT
- binding result ([2]; named 7 nt match (nt 2-8)): binds

B3: Guide 6nt / tandem 22 nt (ssDNA)
DNA 1: CGAGGTATTTTTTTTTTTTTTT
DNA 2: B1 DNA 2 with T14A, T15C, T17A, T18C, T19C, T21C
modifications: guide 5' phosphate; amino-C6-dT
- binding result [3]: binds

B4: Guide 3nt / tandem 22 nt (ssDNA)
DNA 1: CGAGTATTTTTTTTTTTTTTTT
DNA 2: B1 DNA 2 with T14A, T15C, T17A, T18C, T19C, T21C
modifications: guide 5' phosphate; amino-C6-dT
- binding result [4]: binds

B5: Guide 8nt (2-9) / single target (ssDNA)
DNA 1: CGAGGTAGTTTTTTTTTTTTTT
DNA 2: B1 DNA 2
modifications: guide 5' phosphate; amino-C6-dT
- binding result ([2]; named 8 nt match (nt 2-9)): binds

B6: Guide 3nt / 36 nt target with 17 nt block (mixed)
DNA 1: CGAGTATTTTTTTTTTTTTTTT
DNA 2: TTTTTTTTTTTTTTACTACCTCTCGGACCAACAGCGGGTACGGCTGTGCTACTACCTCTTTTTTTTTTTTTTTTTTTTTTTTTTTTTTTT
DNA 3: ACAGCCGTACCCGCTGT
modifications: guide 5' phosphate; labelled T in block
- binding result [5]: binds

B7: Guide 3nt / 36 nt target with 21 nt block (mixed)
DNA 1: CGAGTATTTTTTTTTTTTTTTT
DNA 2: B6 DNA 2
DNA 3: GCACAGCCGTACCCGCTGTTG
modifications: guide 5' phosphate; labelled T in block
- binding result [6]: binds

B8: Guide 3nt / 36 nt target with 25 nt block (mixed)
DNA 1: CGAGTATTTTTTTTTTTTTTTT
DNA 2: B6 DNA 2
DNA 3: TAGCACAGCCGTACCCGCTGTTGGT
modifications: guide 5' phosphate; labelled T in block
- binding result [7]: binds

B9: Guide 3nt / tandem 64 nt (ssDNA)
DNA 1: CGAGTATTTTTTTTTTTTTTTT
DNA 2: TTTTTTTTTTTTTTACTACCTCTTTTTTTTTTTTTTTTTTTTTTTTTTTTTTTTTTTTTTTTTTTTTTTTTTTTTTTTACTACCTCTTTTTTTTTTTTTTTTTTTTTTTTTTTTTTTT
modifications: guide 5' phosphate; amino-C6-dT; target 3' phosphate
- binding result [8]: binds

B10: Guide 3nt / tandem 15 nt (ssDNA)
DNA 1: CGAGTATTTTTTTTTTTTTTTT
DNA 2: TTTTTTTTTTTTTACTACCTCTTTTTTTACTACCTCTTTTTTTTTTTTTTTTTTTTTTTTTTTTTT
modifications: guide 5' phosphate; amino-C6-dT
- binding result [9]: binds

B11: Guide 3nt / tandem 92 nt (ssDNA)
DNA 1: CGAGTATTTTTTTTTTTTTTTT
DNA 2: TTTTTTTTTTTTTTACTACCTCTTTTTTTTTTTTTTTTTTTTTTTTTTTTTTTTTTTTTTTTTTTTTTTTTTTTTTTTTTTTTTTTTTTTTTTTTTTTTTTTTTTTACTACCTCTTTTTTTTTTTTTTTTTTTTTTTTTTTTTTT
modifications: guide 5' phosphate; amino-C6-dT; target 3' phosphate
- binding result [10]: binds

B12: Guide 3nt / 11 nt Y-fork (mixed)
DNA 1: CGAGTATTTTTTTTTTTTTTTT
DNA 2: TTTTTTTTTTTTTTTTTTTTTTTTCTCTTTGGCGACGGCAGCGAGGC
DNA 3: GCCTCGCTGCCGTCGCCATTTTTTCTCTTTTTTTTT
modifications: guide 5' phosphate; dye-labelled T in target
- binding result [11]: binds

B13: Guide 3nt / triple target (ssDNA)
DNA 1: CGAGTATTTTTTTTTTTTTTTT
DNA 2: TTTTTTTTTTTTACCTCTTTTTTACCTCTTTTTTACCTCTTTTTTTTTTTTTTTTTTTTTTTTTTTTTT
modifications: guide 5' phosphate; amino-C6-dT
- binding result [12]: binds

B14: Guide 3nt / tandem 120 nt (ssDNA)
DNA 1: CGAGTATTTTTTTTTTTTTTTT
DNA 2: TTTTTTTTTTTTTTACTACCTCTTTTTTTTTTTTTTTTTTTTTTTTTTTTTTTTTTTTTTTTTTTTTTTTTTTTTTTTTTTTTTTTTTTTTTTTTTTTTTTTTTTTTTTTTTTTTTTTTTTTTTTTTTTTTTTTACTACCTCTTTTTTTTTTTTTTTTTTTTTTTTTTTTTTT
modifications: guide 5' phosphate; amino-C6-dT; target 3' phosphate
- binding result [13]: binds

B15: Guide 3nt / Lin28 double target (mixed)
DNA 1: CGAGTATTTTTTTTTTTTTTTT
DNA 2: TTTTTTTTTTTTTTTTTTTACTACCTCTTTTTTTTTTTTTTTTTTTTGCGCTATGCGGTTGTATAGTTTTAGGGTCACACCCACCACTGGGAGATAACTATACAATCGCATAGCGCTTTTTTTTTTTTTTTTTTTTTTTTTTTTTTTTTACTACCTCTTTTTTTTTTTTTTTTT
modifications: guide 5' phosphate; amino-C6-dT
- binding result [14]: binds
